Data taken from paper PMC8155045.

Target: mCherry-YC (37 kDa isoform)
Experiment: FRET or BRET; FLIM-FRET (phasor analysis) in nuclei of live HeLa cells, eGFP donor and mCherry acceptor, all three NF-Y subunits transfected (third one untagged), 24 h after transfection, 37 degrees, 5% CO2

FRET efficiency: 16%
fraction of FRET (% pixels): 38.2 % pixels
B1: EGFP-YB (natural protein)
chain: MTMDGDSSTTDASQLGISADYIGGSHYVIQPHDDTEDSMNDHEDTNGSKESFREQDIYLPIANVARIMKNAIPQTGKIAKDAKECVQECVSEFISFITSEASERCHQEKRKTINGEDILFAMSTLGFDSYVEPLKLYLQKFREAMKGEKGIGGAVTATDGLSEELTEEAFTNQLPAGLITTDGQQQNVMVYTTSYQQISGVQQIQFS
